Test system: Escherichia coli TOP10
Assay: shrunken log2 fold change of peptide-encoding DNA abundance (4.5 h post-induction vs induction); higher = less antimicrobial activity (less host growth inhibition)
Details: time post-induction: 4.5 h; library: site-saturation at positions 5, 18, 19, 20
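Further: peptides expressed intracellularly from a pBAD plasmid library in pooled LB shake-flask culture, induced with 0.3% L-arabinose, DNA abundance read by NGS, three biological replicates, DESeq2 with apeglm shrinkage.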

RRIRERPPRLPRPRPRPDMSPRP was tested, and the “shrunken log2 fold change” value was -0.064.

RRIRTRPPRLPRPRPRPSMMPRP was tested, and the “shrunken log2 fold change” value was -0.0802.

In the case of RRIRLRPPRLPRPRPRPNKAPRP, the “shrunken log2 fold change” value is reported as -0.0163.

For RRIRYRPPRLPRPRPRPNGVPRP, the “shrunken log2 fold change” value was 0.0238.

RRIRHRPPRLPRPRPRPHRTPRP was tested, and the “shrunken log2 fold change” value was -0.179.

With RRIRSRPPRLPRPRPRPLGCPRP the “shrunken log2 fold change” value was 0.285.

With RRIRTRPPRLPRPRPRPAIGPRP the “shrunken log2 fold change” value was 0.1.

With RRIRVRPPRLPRPRPRPLLSPRP the “shrunken log2 fold change” value was -0.08.

With RRIRVRPPRLPRPRPRPGIHPRP the “shrunken log2 fold change” value was -0.118.

For RRIRPRPPRLPRPRPRPHPDPRP, the “shrunken log2 fold change” value was -0.0791.

RRIRNRPPRLPRPRPRPEHKPRP was tested, and the “shrunken log2 fold change” value was 0.00308.

For RRIRCRPPRLPRPRPRPSPDPRP, the “shrunken log2 fold change” value was 0.215.

With RRIRVRPPRLPRPRPRPDSRPRP the “shrunken log2 fold change” value was 0.0857.

In the case of RRIRMRPPRLPRPRPRPTVPPRP, the “shrunken log2 fold change” value is reported as 0.388.

In the case of RRIRQRPPRLPRPRPRPVDPPRP, the “shrunken log2 fold change” value is reported as -0.0233.

In the case of RRIRQRPPRLPRPRPRPFMVPRP, the “shrunken log2 fold change” value is reported as -0.686.

RRIRPRPPRLPRPRPRPARTPRP was tested, and the “shrunken log2 fold change” value was 0.396.

RRIRKRPPRLPRPRPRPSVRPRP was tested, and the “shrunken log2 fold change” value was 0.528.

For RRIRMRPPRLPRPRPRPVPVPRP, the “shrunken log2 fold change” value was 0.364.

RRIRLRPPRLPRPRPRPNCFPRP was tested, and the “shrunken log2 fold change” value was -0.0891.

RRIRQRPPRLPRPRPRPKHMPRP was tested, and the “shrunken log2 fold change” value was -0.237.

RRIRNRPPRLPRPRPRPLPIPRP was tested, and the “shrunken log2 fold change” value was -0.299.

In the case of RRIRGRPPRLPRPRPRPQDHPRP, the “shrunken log2 fold change” value is reported as 0.254.

In the case of RRIRSRPPRLPRPRPRPQVCPRP, the “shrunken log2 fold change” value is reported as -0.0852.

RRIRWRPPRLPRPRPRPHEVPRP was tested, and the “shrunken log2 fold change” value was 0.169.

RRIRTRPPRLPRPRPRPIHDPRP was tested, and the “shrunken log2 fold change” value was -0.0511.

For RRIRYRPPRLPRPRPRPVKQPRP, the “shrunken log2 fold change” value was -0.00131.

RRIRLRPPRLPRPRPRPHEPPRP was tested, and the “shrunken log2 fold change” value was -0.0213.

For RRIRSRPPRLPRPRPRPACPPRP, the “shrunken log2 fold change” value was 0.413.

For RRIRIRPPRLPRPRPRPYQRPRP, the “shrunken log2 fold change” value was -0.12.

In the case of RRIRFRPPRLPRPRPRPLTSPRP, the “shrunken log2 fold change” value is reported as -0.0399.

For RRIRMRPPRLPRPRPRPCTRPRP, the “shrunken log2 fold change” value was -0.0828.

In the case of RRIRLRPPRLPRPRPRPISWPRP, the “shrunken log2 fold change” value is reported as 0.0554.

For RRIRKRPPRLPRPRPRPISGPRP, the “shrunken log2 fold change” value was -7.33e-05.

For RRIRQRPPRLPRPRPRPEFTPRP, the “shrunken log2 fold change” value was -0.0117.

For RRIRIRPPRLPRPRPRPQIHPRP, the “shrunken log2 fold change” value was -0.796.

In the case of RRIRYRPPRLPRPRPRPKPVPRP, the “shrunken log2 fold change” value is reported as 0.218.

With RRIRIRPPRLPRPRPRPLHQPRP the “shrunken log2 fold change” value was -0.121.

RRIRQRPPRLPRPRPRPKDKPRP was tested, and the “shrunken log2 fold change” value was -0.386.

In the case of RRIRSRPPRLPRPRPRPVMIPRP, the “shrunken log2 fold change” value is reported as -0.0753.

RRIRIRPPRLPRPRPRPRLRPRP was tested, and the “shrunken log2 fold change” value was -0.0272.

With RRIRARPPRLPRPRPRPTCCPRP the “shrunken log2 fold change” value was 0.653.

For RRIRLRPPRLPRPRPRPVTIPRP, the “shrunken log2 fold change” value was 0.0221.

In the case of RRIRPRPPRLPRPRPRPFQEPRP, the “shrunken log2 fold change” value is reported as -0.185.

In the case of RRIRSRPPRLPRPRPRPRLPPRP, the “shrunken log2 fold change” value is reported as 0.315.

In the case of RRIRERPPRLPRPRPRPYYEPRP, the “shrunken log2 fold change” value is reported as -0.224.

RRIRARPPRLPRPRPRPAGIPRP was tested, and the “shrunken log2 fold change” value was 0.156.

In the case of RRIRTRPPRLPRPRPRPTINPRP, the “shrunken log2 fold change” value is reported as -0.565.

RRIRRRPPRLPRPRPRPWEPPRP was tested, and the “shrunken log2 fold change” value was 0.0979.

With RRIRPRPPRLPRPRPRPKLPPRP the “shrunken log2 fold change” value was 0.298.
